In US20230034906A1 (TRINOMAB BIOTECH, published 2023):

T1: homologous sequence of gB glycoprotein of 56 virus strains (gB_Con. Strain) (human cytomegalovirus (homologous …, UniProt P06473 25-699))
T1 construct: C-terminal tags are part of the entry
T1 chain: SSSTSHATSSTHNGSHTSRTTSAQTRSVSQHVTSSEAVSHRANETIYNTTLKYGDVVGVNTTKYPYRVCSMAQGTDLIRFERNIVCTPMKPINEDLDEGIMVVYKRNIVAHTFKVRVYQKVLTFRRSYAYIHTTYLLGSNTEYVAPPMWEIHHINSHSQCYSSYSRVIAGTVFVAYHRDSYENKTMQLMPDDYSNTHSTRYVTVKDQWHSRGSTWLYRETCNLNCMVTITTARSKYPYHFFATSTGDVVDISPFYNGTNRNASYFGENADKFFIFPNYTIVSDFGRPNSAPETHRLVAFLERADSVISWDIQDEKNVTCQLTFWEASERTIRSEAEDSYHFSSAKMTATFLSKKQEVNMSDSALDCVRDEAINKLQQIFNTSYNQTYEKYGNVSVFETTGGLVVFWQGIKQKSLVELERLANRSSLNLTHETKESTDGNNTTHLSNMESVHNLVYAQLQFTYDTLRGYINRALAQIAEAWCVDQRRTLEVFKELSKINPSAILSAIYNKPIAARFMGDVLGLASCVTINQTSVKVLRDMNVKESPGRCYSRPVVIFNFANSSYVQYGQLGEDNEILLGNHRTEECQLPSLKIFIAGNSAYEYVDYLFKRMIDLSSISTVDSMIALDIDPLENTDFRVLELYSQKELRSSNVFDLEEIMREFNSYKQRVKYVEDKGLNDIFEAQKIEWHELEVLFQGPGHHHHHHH

T2: gB_Towne protein with N383 mutated into glutamine (human cytomegalovirus, strain Towne, UniProt F5HB53 25-700)
T2 chain: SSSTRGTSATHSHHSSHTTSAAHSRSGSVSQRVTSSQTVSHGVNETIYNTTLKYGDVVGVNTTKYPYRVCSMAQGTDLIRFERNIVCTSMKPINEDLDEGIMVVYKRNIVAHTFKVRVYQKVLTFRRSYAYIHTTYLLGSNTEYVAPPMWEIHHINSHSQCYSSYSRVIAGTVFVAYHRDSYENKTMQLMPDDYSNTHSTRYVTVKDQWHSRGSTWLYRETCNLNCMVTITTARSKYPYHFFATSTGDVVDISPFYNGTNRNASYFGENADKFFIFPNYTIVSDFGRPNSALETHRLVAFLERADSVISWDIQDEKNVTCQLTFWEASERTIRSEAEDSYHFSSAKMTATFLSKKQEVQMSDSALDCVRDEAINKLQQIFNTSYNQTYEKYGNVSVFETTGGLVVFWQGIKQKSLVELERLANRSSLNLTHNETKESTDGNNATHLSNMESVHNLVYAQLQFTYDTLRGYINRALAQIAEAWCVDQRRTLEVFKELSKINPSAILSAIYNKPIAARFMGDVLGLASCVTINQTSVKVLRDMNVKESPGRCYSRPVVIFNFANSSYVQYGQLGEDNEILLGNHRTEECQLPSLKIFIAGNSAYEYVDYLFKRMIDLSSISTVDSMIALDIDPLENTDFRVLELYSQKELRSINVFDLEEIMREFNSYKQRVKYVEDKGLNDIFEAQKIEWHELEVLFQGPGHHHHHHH


What was measured:
[1] = biological target: T3, HCMV gB glycoprotein of standard strain Towne (gB_Towne strain) (human cytomegalovirus, strain Towne, UniProt F5HB53 25-700); assay: SPR (Biacore), antibody captured by anti-human IgG (Fc) on CM5 chip, gB in solution
T3 construct: also called antigen protein gB0049

[2] = biological target: T1, homologous sequence of gB glycoprotein …; assay: ELISA, HEK293 culture supernatant on gB
[3] = biological target: T2, gB_Towne protein with N383 mutated into …; assay: indirect ELISA, antibody titrated on gB glycoprotein mutant
[4] = biological target: gB glycoprotein of HCMV standard strain Towne, on the virus (human cytomegalovirus, strain Towne, UniProt P13201 23-907); assay: cell-based or functional assay
Sequence of gB glycoprotein of HCMV standard strain Towne, on the virus (P13201 23-907 limits assumed): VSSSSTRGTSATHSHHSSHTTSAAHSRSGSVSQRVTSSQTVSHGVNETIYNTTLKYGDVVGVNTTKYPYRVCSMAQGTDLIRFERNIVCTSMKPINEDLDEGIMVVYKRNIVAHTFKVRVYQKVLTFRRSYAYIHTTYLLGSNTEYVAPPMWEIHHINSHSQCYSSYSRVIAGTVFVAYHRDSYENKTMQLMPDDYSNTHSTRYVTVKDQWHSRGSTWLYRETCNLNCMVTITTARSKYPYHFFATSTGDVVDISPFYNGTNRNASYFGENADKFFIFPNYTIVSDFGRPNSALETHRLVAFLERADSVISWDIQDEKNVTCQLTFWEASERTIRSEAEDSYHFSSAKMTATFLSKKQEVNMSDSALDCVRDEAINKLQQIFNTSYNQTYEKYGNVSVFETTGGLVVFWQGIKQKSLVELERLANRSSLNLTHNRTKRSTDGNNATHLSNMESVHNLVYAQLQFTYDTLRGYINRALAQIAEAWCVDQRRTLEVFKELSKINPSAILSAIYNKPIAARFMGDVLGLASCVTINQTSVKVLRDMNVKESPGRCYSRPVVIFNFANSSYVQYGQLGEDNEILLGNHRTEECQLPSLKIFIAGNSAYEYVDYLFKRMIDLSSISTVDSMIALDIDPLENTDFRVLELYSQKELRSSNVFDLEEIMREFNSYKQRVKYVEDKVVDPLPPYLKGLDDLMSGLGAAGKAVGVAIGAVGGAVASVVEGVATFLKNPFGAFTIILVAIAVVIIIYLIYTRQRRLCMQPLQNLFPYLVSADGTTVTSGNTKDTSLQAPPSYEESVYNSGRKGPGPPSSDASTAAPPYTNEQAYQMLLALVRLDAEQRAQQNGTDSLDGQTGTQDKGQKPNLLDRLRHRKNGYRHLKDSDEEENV

| Binder | Kd [1] [nM] | binding result [2] | binding result [3] | EC50 of neutralizing Towne virus infection in primary HUVEC cells [4] [µg/mL] |
| --- | --- | --- | --- | --- |
| TRN1018 (antibody, V domains shown, Fully human antibody; kappa light chain) VH: QVQLVQSGGGVVQPGRSLRLSCAASGFTFSNHGIHWVRQAPGKGLEWVAVISSDGTDTRDADSVRGRFTISRDNSRNTVYLDMNSLRAEDTAVYYCARDGRCGDERCYSGLPDVWGRGTRVSVSS VL: EIVLTQSPATLSLSPGERATLSCRASQSVGGYLAWYQQKVGQAPRLLIYDASNRATGIPARFSGSGSGTDFTLTISSLEPEDFAVYYCQQRSNWPPLTFGGGTKVEIKR | 27.9 | binds |  |  |
| TRN1017 (antibody, V domains shown, lambda light chain; expressed in HEK293 cells) VH: QVLLVQSGGGLVQPGGSLRLACETSGFTFRHYWMHWVRQAPGKGLVWLSSIHGSGTTTRYADSVKGRFTISRDNAKNILFLQINSPRPEDTATYYCVRDDYTSGYNWGQGAFVTVSS VL: QSALTQPASVSGSRGQSITIPCTGSRSDVGGYNYVSWYQQRPGKAPKLILYDVSHRPSGISDRFSGSKLGDTASLTISGLRDEDEADYYCSSYTTKSTLYVFGTGTTVSVLG |  |  | binds | 0.089 |
| TRN1020 (antibody, V domains shown, Fully human antibody; lambda light chain) VH: EVQLVESGGGLAQPGGSLRLSCEASGFSFSTYAMSWVRQAPGKGLEWVAAVSGRGTSTFYLDSVKGRFTVSRDNSRTTVFLQMNSLKVEDTAFYYCAKDSYVGGSFDWLPRPDYFDHWGRGVLVTVSS VL: QSVLTQPPSLSATPGQTVTISCSGSNSNIGKNYVSWYQQLPGAAPKLLLYNNNLRPSGIPARFSGSKSGTSATLGITGLQAGDEATYSCATWDKTLNFWVFGGGTKVTVLG | 0.6 | binds |  | 0.041 |
